{"source": "patent US10532083B2", "about": "“Methods for inducing differentiation or conversion of white adipocytes and/or preadipocytes to brown adipocites using FGF8” (Technische Universität München, priority 2014, dated 2020)", "molecules": {"B1": {"name": "FGF8b: murine recombinant paracrine fibroblast growth factor 8, major spliceform b (R&D Systems); amino acid sequence identical to human, SEQ ID NO:16/20 (protein)", "chain": "MGSPRSALSCLLLHLLVLCLQAQVTVQSSPNFTQHVREQSLVTDQLSRRLIRTYQLYSRTSGKHVQVLANKRINAMAEDGDPFAKLIVETDTFGSRVRVRGAETGLYICMNKKGKLIAKSNGKGKDCVFTEIVLENNYTALQNAKYEGWYMAFTRKGRPRKGSKTRQHQREVHFMKRLPRGHHTTEQSLRFEFLNYPPFTRSLRGSQRTWAPEPR", "modifications": "human FGF8b"}}, "key": {"[1]": {"system": "epididymal white adipose tissue", "type": "in vivo, adult male 129Sv/ev mice", "from_the_text": "Implantation of Ffg8b releasing pellets into the visceral, epididymal white adipose tissue depot leads to recruitment of brown adipocytes. A—Representative photographs centered on the implantation site of three control pellets (upper panels) and three Fgf8b pellets (lower panels). The epididymal fat depot is discernible in light gray shades surrounded by darker non-adipose tissues. The area of visible browning is marked by a dotted line. B—To highlight “visual browning” in this gray-scale images we digitally removed all pixels with a colour saturation of more than 162 (on a scale of 0-255). Here, white areas correspond to brown colour on a background of whitish adipose tissue. C—The mRNA abundance of several brown adipocyte marker genes in the entire depot. Ucp1 and Cox7a1 mRNA are increased by Fgf8b treatment but not by the placebo pellet. Physiological data of animals implanted with drug release pellets. A—The absolute body mass of mice was not altered by Fgf8b. […] C—The masses of the implanted epididymal fat depot and the contralateral non-implanted depot were not different. Interscapular brown adipose tissue was not different in placebo and Fgf8b treated animals. […] E—Plasma metabolites of carbohydrate and lipid metabolisms were not affected by Fgf8b treatment (GLU—glucose, CHOL—total cholesterol, nHDLc—non-HDL cholesterol, HDL—high density lipoproteins, LDL—low density lipoproteins, VLDL—very low density lipoproteins, TRIG—triglycerides). F—Liver enzymes in the plasma were not altered by Fgf8b treatment. Pellets 1.5 mm in diameter were fabricated from a biodegradable matrix to locally release 100 ng FGF8b per day for 21 days (Innovative Research of America, Sarasota, Fla., USA). […] To implant a pellet into the subcutaneous adipose tissue, a mouse of the 129Sv/ev strain was anesthetized, abdominal fur removed and the pellet pushed into the depot through a short cut in the skin. To target the visceral adipose tissue, the pellet was introduced through a small cut each into skin and abdominal wall and placed between lobes of epididymal adipose tissue. Mice were kept in a specific pathogen free barrier facility at room temperature in a 12:12 hour light:dark cycle with free access to food and water. Three weeks after implantation mice were killed by carbon dioxide exposure and dissected. Blood parameters were analyzed with an automated clinical chemistry analyzer (Piccolo xpress system, Abaxis, Darmstadt, Germany). All animal experiments were performed according to the German animal welfare law (permission no. 55.2-1-54-2532-174-11). To investigate the ability of FGF8b to transform white adipose tissue into brown adipose tissue in vivo, we obtained pellets that release 100 ng FGF8b per day and placebo pellets. One pellet each was implanted into the epididymal white adipose tissue of adult male 129Sv/ev mice. After three weeks mice were sacrificed and the tissue analyzed. […] In summary, we found no evidence of any gross metabolic difference between treatment groups."}, "[2]": {"system": "visceral, epididymal white adipocytes", "assay": "Ucp1 / brown adipocyte marker mRNA (qPCR) in immortalized epididymal white adipocytes treated with FGFs", "type": "cell-based, murine"}, "[3]": {"details": "RNA preparation of complete unilateral epididymal depot, 100 ng per day, three weeks, vs placebo pellet"}, "[4]": {"details": "continuous treatment during differentiation, fully differentiated cells (FIG. 2B)"}, "[5]": {"details": "epididymal cells treated 48 hours during proliferation prior to induction"}, "[6]": {"details": "epididymal cells treated 48 hours during proliferation prior to induction, sampled acute to d6 p.i."}}, "data": [{"molecule": "B1", "values": [{"measurement": "Relationship between depot mass and body mass", "setting": "[1]; 100 ng per day, three weeks, vs placebo (FIG. 7D)", "result": "not influenced"}, {"measurement": "Depot mass of implanted and non-implanted epididymal fat and of interscapular brown adipose tissue", "setting": "[1]; 100 ng per day, three weeks, vs placebo group", "result": "not different between groups"}, {"measurement": "Final body weight", "setting": "[1]; 100 ng per day, three weeks, vs placebo group, lean healthy mice", "result": "comparable"}, {"measurement": "Plasma metabolites of carbohydrate and lipid metabolisms (GLU, CHOL, nHDLc, HDL, LDL, VLDL, TRIG)", "setting": "[1]; 100 ng per day, three weeks, vs placebo, Piccolo xpress analyzer", "result": "not affected"}, {"measurement": "Change in body weight during the 3 weeks of treatment", "setting": "[1]; 100 ng per day, vs placebo group", "result": "comparable"}, {"measurement": "Cox7a1 mRNA abundance in the entire depot", "setting": "[1]; [3]", "result": "increased"}, {"measurement": "Ucp1 mRNA abundance in the entire depot", "setting": "[1]; [3]", "result": "increased"}, {"measurement": "Systemic adverse reaction", "setting": "[1]; mouse, in vivo", "result": "no evidence for any systemic adverse reaction"}, {"measurement": "Extent of browned area away from the implanted pellet", "setting": "[1]; one pellet releasing 100 ng FGF8b per day, three weeks", "result": "approximately 3 mm"}, {"measurement": "Colour of implantation site and surrounding adipose tissue by visual inspection", "setting": "[1]; one pellet releasing 100 ng FGF8b per day, three weeks, placebo site and contralateral depot remained white", "result": "brown colour"}, {"measurement": "Cox7a1 mRNA", "setting": "[2]; [4]", "result": "not or only slightly increased"}, {"measurement": "Elovl3 mRNA", "setting": "[2]; [4]", "result": "not or only slightly increased"}, {"measurement": "Cidea mRNA abundance", "setting": "[2]; epididymal adipocytes, treatment during differentiation, greater effect size than in inguinal", "result": "increased"}, {"measurement": "Cox7a1 mRNA abundance in mature adipocytes", "setting": "[2]; [5]", "result": "increased"}, {"measurement": "Foxc2 mRNA abundance, acute response", "setting": "[2]; [5]", "result": "do not acutely respond"}, {"measurement": "Prdm16 mRNA abundance, timecourse", "setting": "[2]; [5]", "result": "transient increase in abundance directly following induction"}, {"measurement": "pRb mRNA abundance, acute response", "setting": "[2]; [5]", "result": "do not acutely respond"}, {"measurement": "Cidea mRNA abundance, timecourse", "setting": "[2]; [6]", "result": "already increasing on day 4 p.i."}, {"measurement": "Elovl3 mRNA abundance, timecourse", "setting": "[2]; [6]", "result": "already increasing on day 4 p.i."}, {"measurement": "Ucp1 mRNA abundance, timecourse", "setting": "[2]; epididymal cells treated 48 hours during proliferation prior to induction, sampled acute, d1, d2, d4, d6 p.i., normalized to untreated", "result": "increased 6 days after induction for the first time"}, {"measurement": "Pgc1a mRNA abundance after complete differentiation", "setting": "[2]; epididymal cells treated 48 hours during proliferation, day 6 p.i.", "result": "increased Pgc1a mRNA abundance"}, {"measurement": "Pgc1a mRNA abundance, acute", "setting": "[2]; epididymal cells treated 48 hours during proliferation, sample immediately after treatment", "result": "acutely downregulated"}, {"measurement": "Final Ucp1 mRNA abundance after full differentiation (responsiveness)", "setting": "[2]; epididymal cells, comparably late treatment (fully differentiated state)", "result": "respond"}, {"measurement": "Final Ucp1 mRNA abundance after full differentiation", "setting": "[2]; epididymal cells, treatment during the entire differentiation period", "result": "strongest Ucp1 induction"}]}]}
